Reference: patent US10562947B2, “Compositions and methods for preventing or treating diseases, conditions or processes characterized by aberrant fibroblast proliferation and extracellular matrix deposition” (MOERAE MATRIX, INC., priority 2011, dated 2020)

Tests used:
Experiment in all cases: Kinase Profiling Assay
Type in all cases: biochemical
Details in all cases: 100 μM peptide
[1] = biological target: PKBα(h) (Homo sapiens, UniProt P31749)
In short: (§1)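 Specificity of the MK2-directed peptides is examined by measuring activity of 266 human kinases, every determination performed in duplicate.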

[2] = biological target: BTK(R28H)(h) (Homo sapiens, UniProt Q06187, R28H)
In short: as §1

[3] = biological target: Syk(h) (Homo sapiens, UniProt P43405)
In short: as §1

[4] = biological target: T1, Ros(h) (Homo sapiens, UniProt P08922)
T1 construct: purchased Millipore (IC50 Profiler Express service)
In short: as §1

[5] = biological target: T2, IRR(h) (Homo sapiens, UniProt P14616)
T2 construct: purchased Millipore
In short: as §1

[6] = biological target: T3, GSK3α(h) (Homo sapiens, UniProt P49840)
T3 construct: purchased Millipore
In short: as §1

[7] = biological target: T4, Hck(h) (Homo sapiens, UniProt P08631)
T4 construct: purchased Millipore
In short: as §1

[8] = biological target: T5, DDR2(h) (Homo sapiens, UniProt Q16832)
T5 sequence (Q16832 22-855): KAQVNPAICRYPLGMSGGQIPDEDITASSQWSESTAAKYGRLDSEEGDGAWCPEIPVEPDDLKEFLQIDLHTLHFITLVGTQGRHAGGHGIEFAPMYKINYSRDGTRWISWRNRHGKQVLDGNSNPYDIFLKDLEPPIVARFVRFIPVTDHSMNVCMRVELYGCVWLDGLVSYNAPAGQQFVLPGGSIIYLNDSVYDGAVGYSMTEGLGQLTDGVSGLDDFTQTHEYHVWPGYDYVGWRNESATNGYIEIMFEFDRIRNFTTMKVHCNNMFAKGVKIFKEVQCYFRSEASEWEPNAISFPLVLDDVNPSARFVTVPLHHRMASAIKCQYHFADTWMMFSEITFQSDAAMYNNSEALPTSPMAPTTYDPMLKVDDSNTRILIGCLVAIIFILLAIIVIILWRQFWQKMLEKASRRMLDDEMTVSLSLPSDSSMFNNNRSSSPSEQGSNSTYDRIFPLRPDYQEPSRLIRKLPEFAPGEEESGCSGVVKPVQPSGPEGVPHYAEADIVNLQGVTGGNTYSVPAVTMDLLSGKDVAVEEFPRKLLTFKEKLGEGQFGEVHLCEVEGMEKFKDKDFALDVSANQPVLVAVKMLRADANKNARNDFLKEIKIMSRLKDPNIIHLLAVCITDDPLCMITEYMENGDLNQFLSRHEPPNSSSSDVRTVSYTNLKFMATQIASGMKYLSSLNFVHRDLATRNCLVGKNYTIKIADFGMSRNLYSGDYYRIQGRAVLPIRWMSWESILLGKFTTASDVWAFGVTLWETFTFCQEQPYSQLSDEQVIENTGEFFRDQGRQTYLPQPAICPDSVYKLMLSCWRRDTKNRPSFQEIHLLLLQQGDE
In short: as §1

[9] = biological target: T6, Txk(h) (Homo sapiens, UniProt P42681)
T6 sequence (P42681 1-527): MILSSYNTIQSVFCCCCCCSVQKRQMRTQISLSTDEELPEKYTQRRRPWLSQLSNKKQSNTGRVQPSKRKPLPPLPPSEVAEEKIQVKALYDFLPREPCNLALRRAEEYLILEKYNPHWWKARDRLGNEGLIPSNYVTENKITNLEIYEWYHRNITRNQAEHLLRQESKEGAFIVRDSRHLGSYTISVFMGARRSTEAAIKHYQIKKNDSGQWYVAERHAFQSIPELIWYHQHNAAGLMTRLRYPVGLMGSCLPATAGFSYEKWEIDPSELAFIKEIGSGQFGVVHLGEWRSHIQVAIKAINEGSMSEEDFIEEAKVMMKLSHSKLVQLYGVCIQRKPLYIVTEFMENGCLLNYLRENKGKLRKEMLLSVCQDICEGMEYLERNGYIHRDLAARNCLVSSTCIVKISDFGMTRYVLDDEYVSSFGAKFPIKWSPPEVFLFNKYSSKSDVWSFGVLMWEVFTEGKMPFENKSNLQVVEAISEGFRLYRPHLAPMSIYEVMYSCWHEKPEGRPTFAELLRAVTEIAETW
In short: as §1

[10] = biological target: T7, PKCϵ(h) (Homo sapiens, UniProt Q02156)
T7 sequence (Q02156 1-737): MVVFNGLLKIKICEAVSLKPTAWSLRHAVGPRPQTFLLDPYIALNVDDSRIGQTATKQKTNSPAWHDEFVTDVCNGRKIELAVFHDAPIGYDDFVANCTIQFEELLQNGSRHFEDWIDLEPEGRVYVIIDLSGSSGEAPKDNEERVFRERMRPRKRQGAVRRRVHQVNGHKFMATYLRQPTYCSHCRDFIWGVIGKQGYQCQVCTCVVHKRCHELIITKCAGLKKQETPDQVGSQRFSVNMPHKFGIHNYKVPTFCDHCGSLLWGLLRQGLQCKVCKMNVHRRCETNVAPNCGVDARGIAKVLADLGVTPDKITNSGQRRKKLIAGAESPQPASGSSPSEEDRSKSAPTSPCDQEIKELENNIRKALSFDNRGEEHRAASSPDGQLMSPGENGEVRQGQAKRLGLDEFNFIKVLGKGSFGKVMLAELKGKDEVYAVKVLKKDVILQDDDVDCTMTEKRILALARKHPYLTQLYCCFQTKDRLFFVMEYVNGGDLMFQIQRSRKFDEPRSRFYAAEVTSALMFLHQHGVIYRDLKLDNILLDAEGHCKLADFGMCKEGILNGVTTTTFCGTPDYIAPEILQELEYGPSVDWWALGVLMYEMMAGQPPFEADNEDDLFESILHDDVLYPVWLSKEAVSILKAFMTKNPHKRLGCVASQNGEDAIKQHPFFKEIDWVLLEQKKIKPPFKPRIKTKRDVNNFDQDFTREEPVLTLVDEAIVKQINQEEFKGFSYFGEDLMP
In short: as §1

[11] = biological target: MLK1(h) (Homo sapiens, UniProt P80192)
In short: as §1

[12] = biological target: SRPK2(h) (Homo sapiens, UniProt P78362)
In short: as §1

[13] = biological target: BTK(h) (Homo sapiens, UniProt Q06187)
In short: as §1

T1 sequence (P08922 28-2347): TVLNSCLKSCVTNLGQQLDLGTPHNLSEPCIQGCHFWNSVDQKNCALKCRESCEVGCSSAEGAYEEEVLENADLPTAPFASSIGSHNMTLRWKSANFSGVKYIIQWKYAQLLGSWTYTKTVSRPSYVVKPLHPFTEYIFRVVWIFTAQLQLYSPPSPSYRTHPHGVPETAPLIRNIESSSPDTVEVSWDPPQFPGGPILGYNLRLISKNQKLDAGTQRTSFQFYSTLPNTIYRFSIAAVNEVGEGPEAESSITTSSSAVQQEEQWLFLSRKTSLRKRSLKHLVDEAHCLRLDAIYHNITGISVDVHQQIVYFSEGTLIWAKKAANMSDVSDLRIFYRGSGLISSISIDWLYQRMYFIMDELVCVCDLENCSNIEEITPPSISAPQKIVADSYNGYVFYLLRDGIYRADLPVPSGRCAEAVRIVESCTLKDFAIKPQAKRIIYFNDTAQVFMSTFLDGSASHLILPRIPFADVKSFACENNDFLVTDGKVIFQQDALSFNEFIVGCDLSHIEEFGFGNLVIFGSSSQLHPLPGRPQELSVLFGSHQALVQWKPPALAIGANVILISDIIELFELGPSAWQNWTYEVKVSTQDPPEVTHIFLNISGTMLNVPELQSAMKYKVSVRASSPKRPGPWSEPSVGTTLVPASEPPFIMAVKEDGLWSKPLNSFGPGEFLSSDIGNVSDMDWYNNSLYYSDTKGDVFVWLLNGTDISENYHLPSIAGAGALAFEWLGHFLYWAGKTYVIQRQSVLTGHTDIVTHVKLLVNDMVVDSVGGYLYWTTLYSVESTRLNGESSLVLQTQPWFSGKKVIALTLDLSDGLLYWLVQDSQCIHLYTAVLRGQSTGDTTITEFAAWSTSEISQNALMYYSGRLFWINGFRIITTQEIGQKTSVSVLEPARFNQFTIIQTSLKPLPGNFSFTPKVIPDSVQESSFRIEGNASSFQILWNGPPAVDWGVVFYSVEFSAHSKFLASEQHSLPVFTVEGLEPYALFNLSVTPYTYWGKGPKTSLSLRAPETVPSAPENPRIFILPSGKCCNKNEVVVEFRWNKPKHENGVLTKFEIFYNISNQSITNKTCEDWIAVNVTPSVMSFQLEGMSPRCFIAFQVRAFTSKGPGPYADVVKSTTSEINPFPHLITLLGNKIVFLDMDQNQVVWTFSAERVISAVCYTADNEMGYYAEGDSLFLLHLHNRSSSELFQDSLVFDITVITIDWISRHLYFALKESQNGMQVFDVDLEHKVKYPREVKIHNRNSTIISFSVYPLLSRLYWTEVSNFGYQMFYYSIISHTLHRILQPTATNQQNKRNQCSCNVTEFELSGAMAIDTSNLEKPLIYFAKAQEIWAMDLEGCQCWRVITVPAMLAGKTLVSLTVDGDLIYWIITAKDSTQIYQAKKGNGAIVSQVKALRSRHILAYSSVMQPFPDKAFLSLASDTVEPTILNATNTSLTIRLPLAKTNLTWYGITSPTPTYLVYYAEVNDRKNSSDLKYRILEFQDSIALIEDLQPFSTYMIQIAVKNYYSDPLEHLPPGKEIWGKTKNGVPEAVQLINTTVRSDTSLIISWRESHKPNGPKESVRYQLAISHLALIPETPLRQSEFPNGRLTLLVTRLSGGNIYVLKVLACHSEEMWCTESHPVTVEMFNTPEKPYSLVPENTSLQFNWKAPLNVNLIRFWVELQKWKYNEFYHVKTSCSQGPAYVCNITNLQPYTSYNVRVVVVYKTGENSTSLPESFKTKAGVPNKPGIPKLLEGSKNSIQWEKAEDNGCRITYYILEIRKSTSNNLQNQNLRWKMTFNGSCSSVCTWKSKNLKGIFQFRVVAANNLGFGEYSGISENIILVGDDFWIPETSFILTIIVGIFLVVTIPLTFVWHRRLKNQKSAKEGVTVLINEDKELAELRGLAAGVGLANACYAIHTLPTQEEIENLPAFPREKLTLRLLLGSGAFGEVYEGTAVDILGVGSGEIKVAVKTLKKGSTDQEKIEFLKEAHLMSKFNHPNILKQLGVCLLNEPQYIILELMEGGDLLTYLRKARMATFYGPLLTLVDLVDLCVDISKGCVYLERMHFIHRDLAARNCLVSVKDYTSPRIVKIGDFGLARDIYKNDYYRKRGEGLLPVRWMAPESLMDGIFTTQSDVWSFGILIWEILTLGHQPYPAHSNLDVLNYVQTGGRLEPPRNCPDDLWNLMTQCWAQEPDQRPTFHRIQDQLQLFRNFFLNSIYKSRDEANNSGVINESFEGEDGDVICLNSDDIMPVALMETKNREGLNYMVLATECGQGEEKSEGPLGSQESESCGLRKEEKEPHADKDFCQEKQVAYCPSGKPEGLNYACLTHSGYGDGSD
PKBα(h), sequence (P31749 whole entry): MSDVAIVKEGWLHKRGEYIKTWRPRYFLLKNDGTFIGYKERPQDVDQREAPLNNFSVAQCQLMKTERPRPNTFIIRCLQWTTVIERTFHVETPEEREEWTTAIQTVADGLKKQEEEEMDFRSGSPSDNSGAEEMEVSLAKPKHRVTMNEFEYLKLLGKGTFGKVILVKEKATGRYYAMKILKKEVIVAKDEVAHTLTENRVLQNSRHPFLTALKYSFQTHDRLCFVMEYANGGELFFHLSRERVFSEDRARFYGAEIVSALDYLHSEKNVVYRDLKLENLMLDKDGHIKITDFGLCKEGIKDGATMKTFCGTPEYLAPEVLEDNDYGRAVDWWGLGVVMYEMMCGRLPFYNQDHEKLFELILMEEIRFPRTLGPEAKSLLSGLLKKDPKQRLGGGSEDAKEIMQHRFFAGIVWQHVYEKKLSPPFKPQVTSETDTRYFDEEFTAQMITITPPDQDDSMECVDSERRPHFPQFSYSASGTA
BTK(R28H)(h), sequence (Q06187 whole entry R28H): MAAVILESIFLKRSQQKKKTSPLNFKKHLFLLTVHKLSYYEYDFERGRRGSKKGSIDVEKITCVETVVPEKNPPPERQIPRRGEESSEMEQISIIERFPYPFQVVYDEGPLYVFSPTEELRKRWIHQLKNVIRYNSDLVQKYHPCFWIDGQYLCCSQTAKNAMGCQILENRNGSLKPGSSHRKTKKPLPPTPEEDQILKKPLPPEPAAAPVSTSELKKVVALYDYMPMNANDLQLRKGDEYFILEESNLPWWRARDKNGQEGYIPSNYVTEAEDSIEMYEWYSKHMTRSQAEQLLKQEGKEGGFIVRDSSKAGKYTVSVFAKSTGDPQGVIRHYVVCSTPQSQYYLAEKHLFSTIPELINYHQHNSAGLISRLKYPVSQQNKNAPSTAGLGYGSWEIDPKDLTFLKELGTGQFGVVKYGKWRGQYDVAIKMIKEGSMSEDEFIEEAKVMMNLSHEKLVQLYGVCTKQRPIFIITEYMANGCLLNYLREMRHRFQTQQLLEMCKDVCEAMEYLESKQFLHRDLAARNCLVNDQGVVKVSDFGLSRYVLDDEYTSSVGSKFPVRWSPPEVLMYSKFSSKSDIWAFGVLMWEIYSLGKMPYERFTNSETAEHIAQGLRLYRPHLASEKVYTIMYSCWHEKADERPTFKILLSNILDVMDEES
MLK1(h), sequence (P80192 whole entry): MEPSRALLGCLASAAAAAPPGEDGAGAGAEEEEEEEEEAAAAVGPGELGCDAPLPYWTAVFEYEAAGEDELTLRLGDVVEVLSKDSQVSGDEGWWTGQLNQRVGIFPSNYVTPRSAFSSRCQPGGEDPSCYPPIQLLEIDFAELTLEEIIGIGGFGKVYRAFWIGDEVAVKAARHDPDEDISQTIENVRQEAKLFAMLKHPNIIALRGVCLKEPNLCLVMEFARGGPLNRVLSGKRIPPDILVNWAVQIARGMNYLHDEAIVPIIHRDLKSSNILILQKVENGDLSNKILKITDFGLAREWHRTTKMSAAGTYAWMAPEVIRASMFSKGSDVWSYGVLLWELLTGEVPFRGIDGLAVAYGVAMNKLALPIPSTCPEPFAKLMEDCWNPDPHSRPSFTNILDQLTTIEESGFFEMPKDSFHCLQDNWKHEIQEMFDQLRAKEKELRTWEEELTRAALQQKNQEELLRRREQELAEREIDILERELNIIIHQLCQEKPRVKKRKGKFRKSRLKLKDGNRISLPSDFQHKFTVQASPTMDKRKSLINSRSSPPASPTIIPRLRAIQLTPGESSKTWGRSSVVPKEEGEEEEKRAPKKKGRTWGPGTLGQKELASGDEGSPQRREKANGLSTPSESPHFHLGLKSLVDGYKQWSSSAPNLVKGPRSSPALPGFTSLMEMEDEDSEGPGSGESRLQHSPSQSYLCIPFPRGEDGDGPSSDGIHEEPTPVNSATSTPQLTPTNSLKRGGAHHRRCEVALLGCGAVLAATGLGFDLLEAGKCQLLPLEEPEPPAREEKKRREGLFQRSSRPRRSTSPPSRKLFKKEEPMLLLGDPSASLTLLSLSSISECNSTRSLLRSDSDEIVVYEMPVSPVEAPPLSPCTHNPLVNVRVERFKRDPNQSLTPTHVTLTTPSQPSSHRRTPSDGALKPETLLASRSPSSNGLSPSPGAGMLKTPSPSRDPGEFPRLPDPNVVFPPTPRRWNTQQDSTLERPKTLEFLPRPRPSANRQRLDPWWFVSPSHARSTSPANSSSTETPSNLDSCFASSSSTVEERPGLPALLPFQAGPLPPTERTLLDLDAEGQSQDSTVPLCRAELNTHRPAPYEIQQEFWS
T4 sequence (P08631 whole entry): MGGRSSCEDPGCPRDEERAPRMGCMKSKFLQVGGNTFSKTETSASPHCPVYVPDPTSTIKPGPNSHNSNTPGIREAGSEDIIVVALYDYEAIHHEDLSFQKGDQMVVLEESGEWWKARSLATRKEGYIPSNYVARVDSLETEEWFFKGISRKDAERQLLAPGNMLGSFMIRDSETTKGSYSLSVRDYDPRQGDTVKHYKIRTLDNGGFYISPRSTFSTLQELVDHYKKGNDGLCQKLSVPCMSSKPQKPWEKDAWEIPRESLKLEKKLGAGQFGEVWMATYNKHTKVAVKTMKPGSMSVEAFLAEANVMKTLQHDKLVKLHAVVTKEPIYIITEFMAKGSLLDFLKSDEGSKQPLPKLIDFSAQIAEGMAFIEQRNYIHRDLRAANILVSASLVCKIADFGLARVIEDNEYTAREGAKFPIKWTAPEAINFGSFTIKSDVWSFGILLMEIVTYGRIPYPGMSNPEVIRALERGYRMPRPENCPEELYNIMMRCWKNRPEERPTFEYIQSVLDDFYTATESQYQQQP

Sequence	PKBα(h) % activity [1] [%]	BTK(R28H)(h) % activity [2] [%]	Syk(h) % activity [3] [%]	Ros(h) % activity [4] [%]	IRR(h) % activity [5] [%]	GSK3α(h) % activity [6] [%]	Hck(h) % activity [7] [%]	DDR2(h) % activity [8] [%]	Txk(h) % activity [9] [%]	PKCϵ(h) % activity [10] [%]	MLK1(h) % activity [11] [%]	SRPK2(h) % activity [12] [%]	BTK(h) % activity [13] [%]
FAKLAARLYRKALARQLGVAA [MMI-0300]	57	74	24	95	8	157	72	94	48	79	40	–	–
HRRIKAWLKKIKALARQLGVAA (Mammalian) [MMI-0500]	30	10	5	150	10	175	78	79	10	23	43	80	18
KAFAKLAARLYRKALARQLGVAA [MMI-0400]	67	24	9	99	8	164	72	95	37	59	33	97	94
YARAAARQARAKALNRQLGVA (Mammalian) [MMI-0200]	110	–	36	86	69	–	–	–	98	98	84	100	100
